Test results taken from the supplement of paper PMC10126150.
± gives the standard deviation of the averaged measurements.

Test system: ATP
Assay: switch fluorescence ratio, 500 uM ATP over buffer (Cy3 cluster intensity, sum of 5 cycles each) (fold (ratio)); higher = stronger signal-on switching upon ATP binding; sequences stand for … in TCGTCGGCAGCGTCAGATGTGTATAAGAGACAGTTTTTTTTTTTTTTTTTTTTTTTTT…TC
Settings: aptamer strand: ATP DNA aptamer (quencher-CACCTGGGGGAGTATTGCGGAGGAAGG + anchor), 100 nM annealed; ATP concentration: 500 uM
Method in brief: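 Imaging in selection buffer was followed by imaging after 15 min with 500 uM ATP at 22 °C, for Cy3-labelled switching-strand clusters annealed to 100 nM quencher-labelled ATP aptamer on a modified Illumina MiSeq flow-cell. Five of these buffer/ATP cycles ran, separated by NaOH stripping and re-annealing. The fluorescence ratio per cluster is summed target-cycle over summed buffer-cycle Cy3 intensity, averaged per switch-domain sequence; clusters outside 100-1000 RFU were removed.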
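Also: ATP exposure 15 min at 22 °C before imaging.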

Sequence | switch fluorescence ratio
AGGGTTAATG | 1.05 ± 0.017
AGGGTTACTG | 1.04 ± 0.068
AGGGTTAGTG | 0.979 ± 0.012
AGGGTTATTG | 1.01 ± 0.047
AGGGTTGAAG | 0.989 ± 0.035
AGGGTTGGAG | 1.003 ± 0.0042
AGGGTTGTTA | 0.982 ± 0.027
AGGGTTTGTG | 1.11 ± 0.037
AGGGTTTGTT | 1.02 ± 0.04
AGGGTTTTGG | 0.999 ± 0.03
AGGTAATACG | 1.098 ± 0.0067
AGGTAATGAA | 0.967 ± 0.023
AGGTACAGTA | 1.017 ± 0.0017
AGGTAGAAGA | 0.97 ± 0.013
AGGTAGCATA | 1.05 ± 0.03
AGGTAGCATG | 1.01 ± 0.066
AGGTAGGACT | 1 ± 0.014
AGGTAGGGCA | 0.9762 ± 0.0049
AGGTAGGTGG | 1.01 ± 0.019
AGGTAGGTTT | 0.99 ± 0.017
AGGTAGTAAG | 0.995 ± 0.031
AGGTAGTCTG | 0.9756 ± 0.003
AGGTATCAGA | 0.972 ± 0.021
AGGTCCTCTA | 0.974 ± 0.059
AGGTCCTGTG | 0.998 ± 0.016

Sequence | switch fluorescence ratio
AGGTCCTTCA | 1.29 ± 0.046
AGGTCGGAAT | 1.04 ± 0.028
AGGTCGGCAT | 0.997 ± 0.02
AGGTCTAGTT | 0.9995 ± 0.0089
AGGTGAATGG | 1.02 ± 0.03
AGGTGATATG | 1.0171 ± 0.00075
AGGTGCCTG | 0.971 ± 0.035
AGGTGCTCTT | 1 ± 0.053
AGGTGCTGGT | 0.997 ± 0.033
AGGTGCTGTG | 1.01 ± 0.051
AGGTGCTTGG | 0.997 ± 0.026
AGGTGGAAGG | 0.984 ± 0.021
AGGTGGAGGG | 1 ± 0.032
AGGTGGCATT | 1.04 ± 0.015
AGGTGGCCGT | 0.963 ± 0.02
AGGTGGTGGG | 1.01 ± 0.014
AGGTGTAGGC | 0.979 ± 0.038
AGGTGTAGGG | 1.01 ± 0.025
AGGTGTATTC | 0.9962 ± 0.0058
AGGTGTCTTG | 1.14 ± 0.074
AGGTGTGTGC | 0.97 ± 0.014
AGGTGTTGGA | 0.985 ± 0.032
AGGTGTTGGG | 1.01 ± 0.035
AGGTGTTGGT | 1.03 ± 0.025
AGGTGTTTGT | 1.01 ± 0.028

Sequence | switch fluorescence ratio
AGGTTAACAG | 0.9909 ± 0.0073
AGGTTAATGT | 0.996 ± 0.032
AGGTTAATTG | 0.9909 ± 0.0072
AGGTTACGAG | 1 ± 0.02
AGGTTAGGGC | 0.984 ± 0.018
AGGTTAGTGG | 1.015 ± 0.01
AGGTTATGTG | 0.999 ± 0.037
AGGTTCCTCT | 1.04 ± 0.019
AGGTTCGGAG | 1.04 ± 0.06
AGGTTGACTG | 0.988 ± 0.1
AGGTTGAGAG | 0.9515 ± 0.0075
AGGTTGAGGT | 1.08 ± 0.12
AGGTTGGAGC | 1 ± 0.021
AGGTTGGGCA | 0.984 ± 0.0096
AGGTTGGGT | 0.973 ± 0.025
AGGTTGTGCG | 1 ± 0.042
AGGTTGTGCT | 0.9644 ± 0.009
AGGTTGTGTG | 0.959 ± 0.044
AGGTTGTTAG | 1.01 ± 0.019
AGGTTTAAGG | 0.9726 ± 0.0058
AGGTTTGCAA | 1.04 ± 0.028
AGGTTTGCGA | 1.02 ± 0.018
AGGTTTGCTA | 0.959 ± 0.017
AGGTTTGTGT | 1.01 ± 0.024
AGGTTTGTTG | 0.998 ± 0.016

Sequence | switch fluorescence ratio
AGGTTTGTTT | 0.976 ± 0.0092
AGGTTTTCTA | 1.012 ± 0.0036
AGGTTTTGGA | 0.98 ± 0.021
AGTAAAGCGG | 1 ± 0.027
AGTAAAGGGA | 1.02 ± 0.029
AGTAAATAGT | 1.0008 ± 3.6e-05
AGTAAATGGA | 0.9854 ± 0.0055
AGTAAGGGAG | 1.01 ± 0.082
AGTAAGGGGG | 0.998 ± 0.035
AGTAAGGTTA | 1 ± 0.024
AGTAATGAAA | 0.975 ± 0.035
AGTACAGGGT | 0.99 ± 0.032
AGTACCGTTT | 0.968 ± 0.027
AGTACTAGGA | 0.993 ± 0.011
AGTACTGGCA | 1.04 ± 0.061
AGTAGATGGC | 1.02 ± 0.053
AGTAGCAAG | 1.08 ± 0.036
AGTAGCCTGA | 1.01 ± 0.013
AGTAGCTCGG | 1.009 ± 0.0092
AGTAGGGCGG | 1 ± 0.033
AGTAGGGGAC | 0.994 ± 0.022
AGTAGGGTGG | 0.991 ± 0.032
AGTAGTAGGA | 1.01 ± 0.017
AGTAGTTATT | 0.965 ± 0.011
AGTATAGAAA | 0.978 ± 0.0065

Sequence | switch fluorescence ratio
AGTATATAGT | 1.004 ± 0.0073
AGTATATCTT | 0.98 ± 0.012
AGTATATGGA | 1.01 ± 0.013
AGTATCTTAC | 1.03 ± 0.025
AGTATGAGTT | 0.9737 ± 0.0017
AGTATGGGTA | 1 ± 0.018
AGTATGGTGT | 0.937 ± 0.044
AGTATGGTTG | 1 ± 0.02
AGTATGTGGA | 0.9729 ± 0.0071
AGTATTAGAG | 0.983 ± 0.039
AGTATTCAGG | 1 ± 0.027
AGTATTGGAG | 1.004 ± 0.0023
AGTATTTAGG | 0.9808 ± 0.0043
AGTATTTGAG | 0.975 ± 0.023
AGTATTTGTG | 0.97 ± 0.035
AGTATTTTTT | 0.995 ± 0.01
AGTCAATTAG | 1.04 ± 0.012
AGTCATCGGG | 0.9728 ± 0.0011
AGTCCAGTTT | 0.986 ± 0.013
AGTCCGGGAG | 1.02 ± 0.026
AGTCCTGGAG | 0.993 ± 0.044
AGTCGAAATG | 0.989 ± 0.028
AGTCGAGCGT | 0.9976 ± 0.0034
AGTCGGAACG | 0.963 ± 0.015
AGTCGGGCGT | 1 ± 0.046

Sequence | switch fluorescence ratio
AGTCGGTTCG | 0.986 ± 0.03
AGTCGTACGG | 1.004 ± 0.0096
AGTCGTTCTG | 0.99 ± 0.01
AGTCTAACTC | 1.02 ± 0.019
AGTCTAGGCG | 0.985 ± 0.011
AGTCTCAGGC | 1 ± 0.032
AGTCTTAAGG | 0.9459 ± 0.003
AGTCTTGGGG | 0.977 ± 0.019
AGTGAATCTG | 0.992 ± 0.085
AGTGACGGTA | 1.04 ± 0.042
AGTGAGATGA | 1 ± 0.04
AGTGAGCAGC | 1.04 ± 0.039
AGTGAGGCTC | 0.994 ± 0.011
AGTGAGGGGT | 0.97 ± 0.03
AGTGAGTCGG | 0.979 ± 0.018
AGTGAGTGTA | 0.979 ± 0.015
AGTGATATTT | 1.01 ± 0.042
AGTGATCAGG | 1 ± 0.019
AGTGATGCTT | 0.992 ± 0.036
AGTGCAAGTG | 0.972 ± 0.011
AGTGCCCGTA | 1.02 ± 0.063
AGTGCCGGGA | 1.04 ± 0.034
AGTGCCTGCG | 1.02 ± 0.032
AGTGCGAGAG | 1.01 ± 0.029
AGTGCGGGTG | 1.13 ± 0.028

Sequence | switch fluorescence ratio
AGTGCGTGCG | 0.979 ± 0.059
AGTGCGTTTG | 1 ± 0.038
AGTGGAAGCA | 0.972 ± 0.031
AGTGGAAGGG | 0.957 ± 0.027
AGTGGATGGG | 0.9858 ± 0.0031
AGTGGCTTTT | 1.002 ± 0.0081
AGTGGGAACC | 0.998 ± 0.025
AGTGGGAGTG | 0.983 ± 0.034
AGTGGGGCGC | 1.29 ± 0.4
AGTGGGGGAA | 0.985 ± 0.027
AGTGGGGTAC | 1.03 ± 0.032
AGTGGGTCGG | 0.9824 ± 0.0097
AGTGGTGAGT | 0.977 ± 0.025
AGTGGTGGGT | 1.01 ± 0.035
AGTGGTGTTG | 0.9577 ± 0.0092
AGTGGTTAGT | 1.05 ± 0.027
AGTGGTTGTA | 0.997 ± 0.024
AGTGTAAGTA | 0.996 ± 0.03
AGTGTAGCTT | 1.07 ± 0.19
AGTGTAGGGA | 1.01 ± 0.029
AGTGTAGTCT | 0.961 ± 0.02
AGTGTCCAGT | 1 ± 0.028
AGTGTCGCCT | 0.985 ± 0.019
AGTGTGATAG | 0.995 ± 0.034
AGTGTGGAAT | 0.954 ± 0.011

Sequence | switch fluorescence ratio
AGTGTGGGGA | 1.03 ± 0.028
AGTGTGGGGT | 0.979 ± 0.054
AGTGTGGTGG | 0.98944 ± 7.4e-05
AGTGTGTGAA | 0.962 ± 0.01
AGTGTGTGTG | 1.013 ± 0.0024
AGTGTTACTG | 0.975 ± 0.044
AGTGTTAGAC | 1.012 ± 0.0048
AGTGTTAGTG | 0.997 ± 0.037
AGTTAAAACG | 1.02 ± 0.011
AGTTAAGAT | 1.01 ± 0.022
AGTTAATTGA | 0.9704 ± 0.0093
AGTTACCGGG | 0.998 ± 0.044
AGTTACGGGC | 1.01 ± 0.017
AGTTACGGTG | 1 ± 0.025
AGTTAGCAGA | 0.995 ± 0.026
AGTTAGGGTA | 0.9744 ± 0.0059
AGTTAGTGGA | 0.9924 ± 0.00044
AGTTATCCAT | 1.001 ± 0.0083
AGTTATTTGA | 1 ± 0.031
AGTTATTTGC | 0.997 ± 0.024
AGTTCAAACC | 1.04 ± 0.062
AGTTCATATA | 1.013 ± 0.0011
AGTTCCCCTT | 1.052 ± 0.0024
AGTTCCGGGA | 1.02 ± 0.067
AGTTCCGTTT | 0.994 ± 0.022
